Source: article PMC8456102

Target: native Tyr-p3 (group 3 allergen of Tyrophagus putrescentiae) (Tyrophagus putrescentiae) (UniProt C6ZDB5)
Chain of UniProt C6ZDB5 (C6ZDB5 34-285): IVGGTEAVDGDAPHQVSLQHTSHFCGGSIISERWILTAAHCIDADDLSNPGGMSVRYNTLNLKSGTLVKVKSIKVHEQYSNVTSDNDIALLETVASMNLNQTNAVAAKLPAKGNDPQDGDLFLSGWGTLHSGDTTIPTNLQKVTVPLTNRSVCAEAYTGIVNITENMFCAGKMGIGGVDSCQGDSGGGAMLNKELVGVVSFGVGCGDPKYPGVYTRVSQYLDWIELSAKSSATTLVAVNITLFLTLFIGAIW

inhibition of the protease activity of nTyr-p3 on the substrate TAME (OD 405 nm; sample pretreated with 10 mM inhibitor for 60 min at 25°C): 88%
Substance: soybean trypsin inhibitor (from UniProt P01070 25-205) (natural protein)
